Assay results published in patent US20120027785A1.

T1: CdtA-CdtC heterodimer (wild-type CdtA-His6 and CdtC-His6)
T1 chain 1: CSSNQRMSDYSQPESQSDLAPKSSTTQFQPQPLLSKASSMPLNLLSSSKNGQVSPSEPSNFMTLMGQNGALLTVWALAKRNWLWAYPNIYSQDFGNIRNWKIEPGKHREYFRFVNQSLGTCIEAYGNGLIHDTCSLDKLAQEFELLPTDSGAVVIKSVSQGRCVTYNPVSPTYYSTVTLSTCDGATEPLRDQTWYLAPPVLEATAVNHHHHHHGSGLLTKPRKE
T1 chain 2: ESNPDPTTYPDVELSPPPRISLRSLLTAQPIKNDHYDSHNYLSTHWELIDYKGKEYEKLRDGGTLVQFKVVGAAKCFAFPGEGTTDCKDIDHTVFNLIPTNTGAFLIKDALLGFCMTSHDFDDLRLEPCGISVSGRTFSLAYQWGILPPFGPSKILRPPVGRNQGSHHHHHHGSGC


What was measured:
[1] = molecular target: human CD133 (prominin-1) (human) (UniProt O43490); assay: flow cytometry on RPMI 2650 cells, directly PE-conjugated antibody
[2] = molecular target: T1, CdtA-CdtC heterodimer (wild-type …)

Row | Molecule | median fluorescence (MF) [1] | DNA nicking activity of reconstituted heterotrimer preparations [2]
1 | mouse anti-human CD133/1 MAb conjugated to PE (Miltenyi Biotec) (antibody) | 64.8 | 
2 | CdtB/DNase I hybrid protein (from pETBDN2) (protein) NLSDFKVATWNLQGSSAVNESKWNINVRQLLSGEQGADILMVQEAGSLPSSAVRTSRVIQHGGTPIEEYTWNLGTRSRPNMVYIYYSRLDVGANRVNLAIVSRRQADEAFIVHSDSSVLQSRPAVGIRIGTDVFFTVHAAPGDAVAEIDALYDVYLDVQEKWGLEDVMLMGDFNAGCSYVRPSQWSSIRLWTSPTFQWLIPDSADTTATPTHCAYDRIVVAGMLLRGAVVPDSALPFNFQAANGLSDQLAQAISDHYPVEVMLKHHHHHHHMLEDPAANKAQKK |  | reconstituted heterotrimer preparations containing the CdtB/DNase I hybrid protein failed to convert supercoiled DNA to linear and relaxed forms
